# Results reported in PMC2883946.
# Assays:
# 14-3-3β = 14-3-3β (UniProt Q9CQV8); test: FLAG IP, 14-3-3 isoform immunoblot; details: reference: FLAG-AS160 wild type; sites S318,T568,S588,T642,S751
# 14-3-3ε = 14-3-3ε (UniProt P62259); test: FLAG IP, 14-3-3 isoform immunoblot; details: reference: FLAG-AS160 wild type; sites S318,T568,S588,T642,S751
substance,measurement,setting,value
FLAG-AS160 (from UniProt O60343) FLAG-AS160 5P,binding against the reference,14-3-3β,weaker
same,binding against the reference,14-3-3ε,weaker
